From the supplement of paper PMC10065799, “High-throughput profiling of sequence recognition by tyrosine kinases and SH2 domains using bacterial peptide display” (eLife, 2023)

What was measured:
[1] = molecular target: FGFR3 (UniProt P22607); assay: phosphorylation enrichment, bacterial display (enrichment ratio); higher = better substrate or ligand; peptides without Tyr show the background
[2] = molecular target: EPHB2 (UniProt P29323); assay: as above
[3] = molecular target: Hck (UniProt P08631); assay: as above
[4] = molecular target: EPHB1 (UniProt P54762); assay: as above
[5] = system: Fer (mouse); assay: as above
[6] = system: c-Abl (mouse); assay: as above
[7] = molecular target: FGFR1 (UniProt P11362); assay: as above
[8] = system: AncSZ; assay: as above
[9] = molecular target: Fyn (UniProt P06241); assay: as above
[10] = molecular target: MERTK (UniProt Q12866); assay: as above
[11] = molecular target: Jak2 (UniProt O60674); assay: as above
[12] = system: c-Src; assay: as above
[13] = molecular target: Fes (UniProt P07332); assay: as above
[14] = molecular target: Grb2 SH2 (UniProt P62993); assay: SH2 binding enrichment of the phosphorylated peptide, bacterial display (enrichment ratio); higher = better substrate or ligand; peptides without Tyr show the background
[15] = molecular target: SHP2-C SH2; assay: as above
[16] = molecular target: c-Src SH2; assay: as above
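For SH2 binding enrichment of the phosphorylated peptide, bacterial display in this document: peptide library displayed on the E. coli surface as eCPX fusions, selected cells deep-sequenced, score is each peptide's frequency after selection divided by its frequency in the input.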
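For phosphorylation enrichment, bacterial display in this document: 11-residue human phosphosite peptides and single-mutation variants displayed on the E. coli surface, counted by deep sequencing, each peptide's frequency after selection divided by its frequency in the unselected input library; frequency after pTyr selection over input frequency; kinase dosed for 20-30% of maximal phosphorylation in three min.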

Chain of Fes (P07332 whole entry, looked up): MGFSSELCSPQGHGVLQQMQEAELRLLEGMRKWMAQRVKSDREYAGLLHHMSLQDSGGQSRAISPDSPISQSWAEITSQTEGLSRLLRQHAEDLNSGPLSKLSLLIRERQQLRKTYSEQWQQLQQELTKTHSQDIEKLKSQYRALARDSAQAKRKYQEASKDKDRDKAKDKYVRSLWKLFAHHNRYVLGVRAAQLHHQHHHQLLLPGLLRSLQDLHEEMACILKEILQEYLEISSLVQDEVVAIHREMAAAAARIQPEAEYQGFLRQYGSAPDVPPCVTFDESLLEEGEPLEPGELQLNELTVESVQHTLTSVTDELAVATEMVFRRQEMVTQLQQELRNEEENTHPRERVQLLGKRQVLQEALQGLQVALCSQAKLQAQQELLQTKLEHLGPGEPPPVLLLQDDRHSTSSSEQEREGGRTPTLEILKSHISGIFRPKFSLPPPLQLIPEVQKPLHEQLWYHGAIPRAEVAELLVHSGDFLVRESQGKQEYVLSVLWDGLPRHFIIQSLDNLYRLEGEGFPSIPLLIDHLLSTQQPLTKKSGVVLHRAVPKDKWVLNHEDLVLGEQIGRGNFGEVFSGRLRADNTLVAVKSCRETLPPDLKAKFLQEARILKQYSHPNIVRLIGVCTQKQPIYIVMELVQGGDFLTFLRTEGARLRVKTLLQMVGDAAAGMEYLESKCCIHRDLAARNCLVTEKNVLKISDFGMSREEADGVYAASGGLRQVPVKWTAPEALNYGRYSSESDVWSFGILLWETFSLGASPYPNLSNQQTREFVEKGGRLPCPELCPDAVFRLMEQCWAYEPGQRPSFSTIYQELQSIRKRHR
Chain of EPHB2 (P29323 whole entry, looked up): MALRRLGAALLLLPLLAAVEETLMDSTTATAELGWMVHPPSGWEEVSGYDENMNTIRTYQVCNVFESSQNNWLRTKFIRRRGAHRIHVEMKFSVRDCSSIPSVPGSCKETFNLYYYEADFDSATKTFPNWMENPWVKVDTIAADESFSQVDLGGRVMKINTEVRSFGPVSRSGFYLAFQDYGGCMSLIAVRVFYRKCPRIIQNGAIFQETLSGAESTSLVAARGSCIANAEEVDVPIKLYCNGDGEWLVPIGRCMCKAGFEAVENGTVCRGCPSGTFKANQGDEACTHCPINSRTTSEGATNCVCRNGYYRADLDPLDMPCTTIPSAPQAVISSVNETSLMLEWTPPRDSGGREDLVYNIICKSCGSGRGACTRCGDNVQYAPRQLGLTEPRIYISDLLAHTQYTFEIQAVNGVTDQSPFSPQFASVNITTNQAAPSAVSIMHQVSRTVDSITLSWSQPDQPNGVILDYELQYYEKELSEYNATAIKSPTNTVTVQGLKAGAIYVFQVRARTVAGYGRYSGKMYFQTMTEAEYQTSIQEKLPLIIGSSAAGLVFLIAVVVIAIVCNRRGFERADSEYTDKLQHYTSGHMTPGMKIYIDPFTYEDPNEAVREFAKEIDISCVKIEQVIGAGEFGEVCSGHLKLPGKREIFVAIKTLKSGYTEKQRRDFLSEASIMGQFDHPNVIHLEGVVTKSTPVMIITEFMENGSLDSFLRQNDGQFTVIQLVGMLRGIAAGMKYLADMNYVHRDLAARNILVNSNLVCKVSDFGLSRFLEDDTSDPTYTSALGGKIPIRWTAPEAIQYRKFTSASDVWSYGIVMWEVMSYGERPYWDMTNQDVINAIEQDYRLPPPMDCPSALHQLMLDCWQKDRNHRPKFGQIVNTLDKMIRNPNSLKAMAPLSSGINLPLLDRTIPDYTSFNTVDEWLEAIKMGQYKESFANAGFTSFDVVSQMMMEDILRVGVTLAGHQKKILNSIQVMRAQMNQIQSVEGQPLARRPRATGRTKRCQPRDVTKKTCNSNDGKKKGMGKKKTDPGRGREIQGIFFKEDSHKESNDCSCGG
Chain of FGFR3 (P22607 whole entry, looked up): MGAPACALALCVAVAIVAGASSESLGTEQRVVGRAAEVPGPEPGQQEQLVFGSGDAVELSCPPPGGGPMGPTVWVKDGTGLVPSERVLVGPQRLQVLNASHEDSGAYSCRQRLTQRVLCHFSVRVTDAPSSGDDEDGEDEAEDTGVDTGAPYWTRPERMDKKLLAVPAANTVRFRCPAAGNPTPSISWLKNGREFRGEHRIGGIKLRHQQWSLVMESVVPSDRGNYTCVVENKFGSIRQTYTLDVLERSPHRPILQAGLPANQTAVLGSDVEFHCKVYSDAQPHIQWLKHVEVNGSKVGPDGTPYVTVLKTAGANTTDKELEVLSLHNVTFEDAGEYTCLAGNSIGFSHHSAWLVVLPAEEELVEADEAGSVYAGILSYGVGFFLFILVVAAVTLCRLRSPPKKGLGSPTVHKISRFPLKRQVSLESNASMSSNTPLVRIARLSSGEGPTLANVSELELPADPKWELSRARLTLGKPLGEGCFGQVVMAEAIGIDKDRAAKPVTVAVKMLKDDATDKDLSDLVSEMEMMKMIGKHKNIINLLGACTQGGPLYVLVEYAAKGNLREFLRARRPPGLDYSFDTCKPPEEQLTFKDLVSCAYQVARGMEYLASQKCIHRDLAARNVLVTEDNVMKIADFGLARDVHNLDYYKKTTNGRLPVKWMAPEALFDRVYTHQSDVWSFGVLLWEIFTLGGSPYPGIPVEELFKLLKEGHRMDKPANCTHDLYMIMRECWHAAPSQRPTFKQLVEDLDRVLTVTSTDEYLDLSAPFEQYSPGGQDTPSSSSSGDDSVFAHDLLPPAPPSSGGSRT
Chain of FGFR1 (P11362 whole entry, looked up): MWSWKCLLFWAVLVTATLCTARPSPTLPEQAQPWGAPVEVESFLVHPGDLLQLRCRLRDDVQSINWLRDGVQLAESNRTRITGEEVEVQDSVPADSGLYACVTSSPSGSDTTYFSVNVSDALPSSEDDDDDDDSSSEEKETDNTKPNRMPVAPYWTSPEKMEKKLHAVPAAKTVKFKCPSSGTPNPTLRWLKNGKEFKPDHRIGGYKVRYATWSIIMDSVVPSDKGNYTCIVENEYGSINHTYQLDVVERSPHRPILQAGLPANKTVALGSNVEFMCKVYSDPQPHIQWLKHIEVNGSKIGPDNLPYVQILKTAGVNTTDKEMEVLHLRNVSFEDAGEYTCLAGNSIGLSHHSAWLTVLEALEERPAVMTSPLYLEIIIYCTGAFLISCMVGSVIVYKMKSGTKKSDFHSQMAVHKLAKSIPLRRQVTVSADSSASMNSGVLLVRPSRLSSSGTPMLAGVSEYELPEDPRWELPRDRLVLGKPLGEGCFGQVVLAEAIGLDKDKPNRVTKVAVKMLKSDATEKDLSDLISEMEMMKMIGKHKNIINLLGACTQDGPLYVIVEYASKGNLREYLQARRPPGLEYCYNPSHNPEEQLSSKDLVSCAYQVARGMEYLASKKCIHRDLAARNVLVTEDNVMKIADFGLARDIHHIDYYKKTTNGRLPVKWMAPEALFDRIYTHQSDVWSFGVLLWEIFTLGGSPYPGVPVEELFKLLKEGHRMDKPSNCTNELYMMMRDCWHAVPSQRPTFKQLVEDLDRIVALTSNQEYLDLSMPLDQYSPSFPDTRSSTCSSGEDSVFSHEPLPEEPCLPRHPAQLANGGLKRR
Chain of Grb2 SH2 (P62993 whole entry, looked up): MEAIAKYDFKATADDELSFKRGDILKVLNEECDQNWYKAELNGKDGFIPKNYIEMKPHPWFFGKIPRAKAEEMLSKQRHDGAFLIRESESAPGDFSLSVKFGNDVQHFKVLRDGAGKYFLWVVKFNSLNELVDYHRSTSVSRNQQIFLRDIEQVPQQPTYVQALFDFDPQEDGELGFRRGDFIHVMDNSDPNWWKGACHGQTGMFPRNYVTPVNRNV
Chain of MERTK (Q12866 whole entry, looked up): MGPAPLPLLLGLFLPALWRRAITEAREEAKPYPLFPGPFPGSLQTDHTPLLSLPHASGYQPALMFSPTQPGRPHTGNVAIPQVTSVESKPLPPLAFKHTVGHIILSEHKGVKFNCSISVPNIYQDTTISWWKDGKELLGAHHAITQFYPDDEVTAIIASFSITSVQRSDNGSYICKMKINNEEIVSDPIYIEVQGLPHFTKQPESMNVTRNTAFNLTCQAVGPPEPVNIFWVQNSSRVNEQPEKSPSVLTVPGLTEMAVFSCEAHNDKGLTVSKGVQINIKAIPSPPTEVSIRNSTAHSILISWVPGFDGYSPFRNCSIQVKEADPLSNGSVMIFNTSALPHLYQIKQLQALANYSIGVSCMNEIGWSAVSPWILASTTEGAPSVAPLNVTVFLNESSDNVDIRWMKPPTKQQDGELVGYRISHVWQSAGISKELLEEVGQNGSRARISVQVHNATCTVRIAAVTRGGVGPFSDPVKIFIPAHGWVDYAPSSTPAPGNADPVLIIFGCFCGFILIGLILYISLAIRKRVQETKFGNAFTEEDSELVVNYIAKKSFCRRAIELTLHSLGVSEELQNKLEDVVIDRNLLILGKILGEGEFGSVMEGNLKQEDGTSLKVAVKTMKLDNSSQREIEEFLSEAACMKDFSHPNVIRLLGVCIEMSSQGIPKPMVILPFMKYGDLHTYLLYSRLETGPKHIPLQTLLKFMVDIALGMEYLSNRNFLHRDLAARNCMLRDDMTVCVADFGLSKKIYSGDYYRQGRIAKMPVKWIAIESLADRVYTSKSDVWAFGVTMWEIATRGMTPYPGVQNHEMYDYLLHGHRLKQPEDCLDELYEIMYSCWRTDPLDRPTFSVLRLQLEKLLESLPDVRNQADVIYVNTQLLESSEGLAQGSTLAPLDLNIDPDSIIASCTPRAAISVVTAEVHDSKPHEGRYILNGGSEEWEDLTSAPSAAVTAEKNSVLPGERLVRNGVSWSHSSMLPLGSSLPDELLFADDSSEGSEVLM

Sequence	phosphorylation enrichment [1]	phosphorylation enrichment [2]	phosphorylation enrichment [3]	phosphorylation enrichment [4]	phosphorylation enrichment [5]	phosphorylation enrichment [6]	phosphorylation enrichment [7]	phosphorylation enrichment [8]	phosphorylation enrichment [9]	phosphorylation enrichment [10]	phosphorylation enrichment [11]	phosphorylation enrichment [12]	phosphorylation enrichment [13]	SH2 binding enrichment [14]	SH2 binding enrichment [15]	SH2 binding enrichment [16]
HEHKGYNANFC [TGFB2_Y341_P338H]	0.951	0.727	0.832	0.505	0.698	0.464	0.7	0.603	0.659	0.612	0.642	0.542	0.928	0.775	0.647	0.655
HELYVYKCDEN [DOCK3_Y548]	1.05	0.862	0.99	0.762	0.719	0.6	0.957	1.48	0.761	0.549	1.29	1.38	1.19	1.03	0.939	0.796
HFECKYVINAI [MAOA_Y268_YF]	0.998	0.762	0.566	1.14	0.502	1.23	0.627	2.43	0.709	0.529	1.47	0.648	1.87	0.619	0.49	0.432
HFGNNYTDVLQ [MACC1_Y803_R804T_YF]	0.733	0.471	0.426	1.61	0.573	0.761	0.544	0.874	0.517	0.638	0.578	0.66	0.967	0.711	3.84	3.44
HGEAYYSEVKA [PAK5_Y182_P187A]	1.85	0.563	2.47	0.926	3.92	0.506	2.83	1.04	1.68	4.12	1.98	2.22	0.773	0.994	0.897	4.04
HGVSSYDTIIS [LDLR_Y465_V468I]	0.785	0.819	0.738	0.827	0.712	1.63	0.944	1.06	0.669	0.797	1.08	1.03	1.08	0.546	0.546	10.6
HHFAAYFQQGD [GPI_Y351_R347H]	1.19	0.602	0.549	0.581	0.435	0.945	0.669	0.906	0.418	0.475	0.989	0.725	1.13	1.21	0.898	0.661
HIKHNYECLVF [XRCC5_Y416_YF]	1.09	1.44	0.821	1.86	0.665	0.4	0.796	1.31	0.709	0.382	0.547	0.53	1.09	0.85	0.715	4.51
HLGNQYVNVMN [SLC3A1_Y461_R456H]	0.643	0.477	0.85	0.565	0.603	0.764	0.735	0.905	0.483	0.29	0.618	0.471	0.902	20.1	2.63	4
HLRAGYIIPLQ [GAA_Y822]	0.534	0.453	0.268	0.398	0.257	0.681	0.367	0.668	0.417	0.355	0.671	0.327	0.753	1.66	3.2	1.66
HNLDYYKMTTN [FGFR3_Y648_K650M]	14	1.2	0.607	2.13	0.64	0.591	17.7	1.91	0.454	0.68	11.2	0.894	1.04	0.756	1	0.757
HNLYSYPTKHE [MYO3A_Y1396]	0.838	16	8.1	11.6	15.2	3.28	0.782	3.92	5.22	13.6	0.561	2.96	1.18	0.619	0.752	1.8
HSDYQYSQRSQ [PKP2_Y168]	0.377	0.645	0.353	0.495	0.365	0.749	0.344	0.821	0.39	0.501	1.11	0.519	0.587	0.91	0.587	0.484
HSHTRYERNIE [F2_Y434_R431H]	0.555	0.387	0.477	0.67	0.655	0.694	0.62	0.766	0.446	0.5	0.47	0.795	0.85	1.2	1.12	0.843
HTVEDYQAIVD [CCT7_Y263]	1.06	0.936	0.794	0.882	0.85	1.68	0.818	1.73	0.773	0.734	1.67	0.836	2.21	0.816	0.807	0.465
HTVVSYAKVRA [CLOCK_Y378_E380K]	0.933	0.972	0.85	0.749	0.673	0.65	0.917	1.2	1.23	0.934	1.04	0.489	1.3	1.11	14.5	1.12
